Data published in US20250277048A1 (Regeneron, published 2025).

T1: mouse CD40 extracellular domain expressed with a C-terminal myc-myc-hexahistidine tag (mouse)
T1 construct: also called mCD40-MMH; REGN3098
T1 chain: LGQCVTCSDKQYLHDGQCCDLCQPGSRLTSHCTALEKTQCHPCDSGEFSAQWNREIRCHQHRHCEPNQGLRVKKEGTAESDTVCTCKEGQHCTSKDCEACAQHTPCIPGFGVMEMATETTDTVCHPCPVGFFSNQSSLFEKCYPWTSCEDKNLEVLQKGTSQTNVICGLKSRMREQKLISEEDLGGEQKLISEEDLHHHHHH

B1: 21520P2 (antibody, human IgG4 S228P, kappa, V domains shown)
VH: EVQLVESGGGLVQPGGSLRLSCAASGFTFGSYGMAWVRQAPGKGLEWVSAISGSGDYTNYADSVKRRFTISRDNSKNTLYLQMSSLRAEDTAVYYCAKEKTGTTGYLYSGMDVWGQGTTVTVSS
VL: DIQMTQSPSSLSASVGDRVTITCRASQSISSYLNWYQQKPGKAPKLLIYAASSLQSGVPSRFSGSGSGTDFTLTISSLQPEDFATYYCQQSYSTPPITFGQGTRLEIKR
notes: parental bivalent anti-CD40 mAb; common light chain; also called H4sH21520P2
B2: 30027P2 (antibody, human IgG4 S228P, kappa, V domains shown)
VH: EVQLVESGGGLVQPGGSLRLSCAASGFTFSSYAMNWVRQAPGKGLEWVSIISGTIGKTYYADSVKGRFTISRDNSKNTLYLQMNSLRGEDTAVYYCAKDTERDITGSPFDYWGQGTLVTVSS
VL: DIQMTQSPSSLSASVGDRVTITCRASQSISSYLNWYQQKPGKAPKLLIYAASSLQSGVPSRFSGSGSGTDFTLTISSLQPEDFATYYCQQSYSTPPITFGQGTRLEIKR
notes: parental bivalent anti-CD40 mAb; common light chain; also called H4sH30027P2

Tests used:
[1] = target: T2, human CD40 (hCD40) expressed on cells (human, UniProt P25942 21-277); assay: cell-based or functional assay
[2] = target: T3, human CD40 extracellular domain expressed with a C-terminal myc-myc-hexahistidine tag (human); assay: SPR Biacore 4000, mAb captured, 37C
T3 construct: also called hCD40-MMH; hCD40-mmH
Description: (§1) The equilibrium dissociation constants (KD) for anti-CD40 bivalent and bispecific monoclonal antibodies (mAbs) were determined using a real-time surface plasmon resonance (SPR)-based Biacore 4000 biosensor. All binding studies were performed in 10 mM HEPES, 150 mM NaCl, 3 mM EDTA, and 0.05% v/v surfactant Tween-20, pH 7.4 (HBS-ET) running buffer at 25° C. and 37° C. The Biacore CM5 sensor surface was first derivatized by amine coupling with a monoclonal mouse anti-human Fc antibody (REGN2567) to capture anti-CD40 bivalent parental and anti-CD40×CD40 bispecific antibodies. Different concentrations of CD40 reagents, human CD40 extracellular domain expressed with a C-terminal myc-myc-hexahistidine tag (SEQ ID NO: 1114) (“hCD40-MMH”; REGN3094; SEQ ID NO: 53), monkey CD40 extracellular domain expressed with a C-terminal myc-myc-hexahistidine tag (SEQ ID NO: 1114) (“mfCD40-MMH”; REGN3097; SEQ ID NO: 54), and mouse CD40 extracellular domain expressed with a C-terminal myc-myc-hexahistidine tag (SEQ ID NO: 1114) (“mCD40-MMH”; REGN3098; SEQ ID NO: 55), at concentrations ranging from 3.7 nM to 100 nM or 3.3 nM to 90 nM in a series of 3-fold dilutions prepared in HBS-ET running buffer were injected at a flow rate of 30 μL/min for 4 minutes or 50 μL/min for 5 minutes. The dissociation of different CD40 reagents bound to anti-CD40 bivalent parental and anti-CD40×CD40 bispecific antibodies was monitored for 10 minutes in HBS-ET running buffer. At the end of each cycle, the anti-CD40 bivalent parental and anti-CD40×CD40 bispecific antibodies capture surface was regenerated using a 12 sec injection of 20 mM H₃PO₄.
(§2) The association rate (ka) and dissociation rate (kd) were determined by fitting the real-time binding sensorgrams to a 1:1 binding model with mass transport limitation using Scrubber 2.0c curve-fitting software. Binding dissociation equilibrium constant (KD) and dissociative half-life (t_{1/2}) were calculated from the kinetic rates as: KD(M)=kd/kₐ, and t_{1/2} (min)=[ln(2)/(60*kd)].

[3] = target: T1, mouse CD40 extracellular domain …; assay: SPR Biacore 4000, mAb captured, 37C
Description: as §1, §2

[4] = target: T3, human CD40 extracellular domain …; assay: SPR Biacore 4000, mAb captured, 25C
Description: as §1, §2

[5] = target: T4, Macaca fascicularis CD40 (mfCD40) expressed on HEK293/D9/mfCD40 cells (Macaca fascicularis, UniProt G7PG38 21-278); assay: flow cytometry, HEK293/D9/mfCD40 cells
T4 construct: whole, on cells; also called monkey CD40
In short: (§3)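 Cells were incubated 30 min at 4 °C with antibody dilutions from 1.7 pM to 100 nM in 2% FBS/PBS, then with 2.5 μg/ml APC anti-human IgG Fcγ, and fixed. Multiplexed populations were separated by CellTrace signature. APC median fluorescence was fitted with a four-parameter logistic model, and MFI >1500 at 100 nM counted as specific binding.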

[6] = target: T2, human CD40 (hCD40) expressed on cells; assay: cell-based or functional assay; remark: listed apart in the source
[7] = target: T2, human CD40 (hCD40) expressed on cells; assay: flow cytometry, HEK293/D9/hCD40 cells
In short: as §3

T2 sequence (P25942 21-277): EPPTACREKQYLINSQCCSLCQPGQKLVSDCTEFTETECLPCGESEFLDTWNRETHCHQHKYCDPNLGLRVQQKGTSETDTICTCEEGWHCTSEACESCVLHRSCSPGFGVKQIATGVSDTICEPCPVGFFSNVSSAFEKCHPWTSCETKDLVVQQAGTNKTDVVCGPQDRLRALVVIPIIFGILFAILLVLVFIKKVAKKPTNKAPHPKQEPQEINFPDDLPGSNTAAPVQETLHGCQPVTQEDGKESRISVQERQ

| Binder | Max % activation, no ligand, THP-1 NFkB-luc [1] | Max % inhibition, 10 nM hCD40L, THP-1 NFkB-luc [1] | 100 nM Ag Bound [2] | Kd [2] | koff [2] | kon [2] | t1/2 [2] | 100 nM Ag Bound [3] | 100 nM Ag Bound [4] | Kd [4] | koff [4] | kon [4] | t1/2 [4] | EC50 [5] | MFI at 100 nM [5] | IC50, 900 pM hCD40L, Raji NFkB-luc [6] | Max % activation, no ligand, Raji NFkB-luc [6] | Max % inhibition, 900 pM hCD40L, Raji NFkB-luc [6] | EC50 [7] | MFI at 100 nM [7] | further results |
| --- | --- | --- | --- | --- | --- | --- | --- | --- | --- | --- | --- | --- | --- | --- | --- | --- | --- | --- | --- | --- | --- |
| B1 | 1% | 97% | 67.2 RU | 69.9 nM | 0.0803 s⁻¹ | 1.15e+06 M⁻¹ s⁻¹ | 0.1 min | 0.2 RU | 76.6 RU | 25.1 nM | 0.0223 s⁻¹ | 885000 M⁻¹ s⁻¹ | 0.5 min | 3.7 nM | 24100 MFI | 7.7e-11 M | 25% | 81% | 0.82 nM | 20700 MFI | IC50, 10 nM hCD40L, THP-1 NFkB-luc [1]: 0.437 nM; EC50, no ligand, Raji NFkB-luc [6]: > 100 nM |
| B2 | 2% | -61% | 66.5 RU | 6 nM | 0.00372 s⁻¹ | 620000 M⁻¹ s⁻¹ | 3.1 min | 0.2 RU | 62 RU | 1.83 nM | 0.000998 s⁻¹ | 546000 M⁻¹ s⁻¹ | 11.6 min | 1 nM | 33900 MFI | 8.95e-12 M | 9% | 67% | 0.72 nM | 20900 MFI | EC50 (potentiation), 10 nM hCD40L, THP-1 NFkB-luc [1]: 0.00251 nM |
